Measurements as given in the supplement of paper PMC6757056.
± gives the standard deviation of the averaged measurements.

B1: library; a variant is named by its letters at N, in order (parent)
chain: GCUGUCACCGAGAAACUGUGAAGUAUAUCUUAAACCUGGGCACUUAAAAGAUAUAUGGAGUUAGUAGUGCAACCUGCUCGGUCUGAUGAGUCCNNNNNNGGACGAAACAGC

What was measured:
[1] = variants of: B1; assay: FACS-Seq fitted mean relative fluorescence mCherry/BFP without ligand (log10 relative fluorescence); HEK293T; ligand: cyclic di-GMP (c-di-GMP-II aptamer); higher = higher reporter protein expression; details: ligand present: no
Experimental: (§1)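 Hammerhead (sTRSV) ribozyme switch libraries with a ligand aptamer grafted on stem I and a randomized N4-6 loop II, cloned into the 3' UTR of mCherry and transiently transfected into HEK293T cells; RNA-Seq 72 h post transfection with ligand added 1 h before transfection; RNA read count / plasmid DNA read count normalized to the non-cleaving sTRSVctl (x100), log10; sequences with >100 DNA reads. FACS-Seq: lentiviral library sorted into 6 bins after 48 h ligand, log-normal fit mean of mCherry/BFP scaled to controls. Printed sequences are partial switch sequences.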

[2] = variants of: B1; assay: normalized RNA/DNA level without ligand (relative to sTRSVctl = 100) (log10 (% of sTRSVctl)); HEK293T; ligand: cyclic di-GMP (c-di-GMP-II aptamer); higher = less ribozyme self-cleavage, higher mRNA level; details: reporter: mCherry (pCS4076), ligand present: no
Experimental: as §1

[3] = variants of: B1; assay: FACS-Seq fitted mean relative fluorescence mCherry/BFP with ligand (log10 relative fluorescence); HEK293T; ligand: cyclic di-GMP (c-di-GMP-II aptamer); ligand concentration (+) FACS-Seq: 1 mM; higher = higher reporter protein expression; details: ligand present: yes
Experimental: as §1

[4] = variants of: B1; assay: normalized RNA/DNA level with ligand (relative to sTRSVctl = 100) (log10 (% of sTRSVctl)); HEK293T; ligand: cyclic di-GMP (c-di-GMP-II aptamer); ligand concentration (+) RNA-Seq: 1 mM; higher = less ribozyme self-cleavage, higher mRNA level; details: reporter: mCherry (pCS4076), ligand present: yes
Experimental: as §1

Variant | FACS-Seq fitted mean (log10) [1] | normalized RNA/DNA level without ligand (log10) [2] | FACS-Seq fitted mean (log10) [3] | normalized RNA/DNA level with ligand (log10) [4]
UAUAGA | -0.453 ± 0.17 | 1.65 ± 0.021 | -0.265 ± 0.034 | 1.81 ± 0.15
CAGCAA | -0.468 ± 0.048 | 1.36 ± 0.094 | -0.2496 ± 0.00056 | 1.51 ± 0.061
CUGUCA | -0.00992 ± 0.023 | 1.52 ± 0.13 | 0.247 ± 0.011 | 1.68 ± 0.13
CCUCCG | 0.138 ± 0.023 | 1.769 ± 0.013 | 0.32 ± 0.035 | 1.87 ± 0.073
CGGUCA | -0.42 ± 0.019 | 1.45 ± 0.045 | -0.182 ± 0.032 | 1.59 ± 0.18
CCGUAA | -0.4729 ± 0.0036 | 1.35 ± 0.17 | -0.242 ± 0.019 | 1.57 ± 0.082
UCGAGC | -0.085 ± 0.098 | 1.736 ± 0.017 | 0.204 ± 0.013 | 1.84 ± 0.1
ACUCCC | -0.621 ± 0.049 | 1.77 ± 0.049 | -0.284 ± 0.087 | 1.87 ± 0.14
CGGAUA | -0.243 ± 0.057 | 1.19 ± 0.13 | 0.0478 ± 0.023 | 1.3 ± 0.1
ACUUAG | -0.25 ± 0.093 | 1.59 ± 0.024 | 0.0154 ± 0.058 | 1.75 ± 0.096
GUUGCG | -0.248 ± 0.029 | 1.81 ± 0.023 | 0.0336 ± 0.026 | 1.88 ± 0.092
UUAAGA | -0.227 ± 0.096 | 1.613 ± 0.01 | 0.2 ± 0.0086 | 1.76 ± 0.12
ACACGA | -0.4507 ± 0.0033 | 1.37 ± 0.16 | -0.174 ± 0.061 | 1.55 ± 0.11
GUCACG | -0.35 ± 0.017 | 1.64 ± 0.028 | -0.131 ± 0.21 | 1.84 ± 0.085
GUCACU | -0.159 ± 0.13 | 1.708 ± 0.0022 | 0.131 ± 0.035 | 1.85 ± 0.08
AAAGGU | -0.701 ± 0.017 | 1.54 ± 0.054 | -0.44 ± 0.065 | 1.71 ± 0.1
AAGAUA | -0.4038 ± 0.0036 | 1.42 ± 0.094 | -0.0468 ± 0.065 | 1.63 ± 0.063
GUAGAU | -0.404 ± 0.035 | 1.55 ± 0.057 | -0.145 ± 0.055 | 1.72 ± 0.08
AAACUC | -0.854 ± 0.053 | 1.706 ± 0.0065 | -0.744 ± 0.039 | 1.83 ± 0.071
UAUUCU | -0.432 ± 0.069 | 1.7467 ± 0.0014 | -0.275 ± 0.051 | 1.89 ± 0.094
GUGGUG | -0.455 ± 0.011 | 1.69 ± 0.036 | -0.117 ± 0.042 | 1.83 ± 0.12
AAACAG | -0.103 ± 0.1 | 1.55 ± 0.053 | 0.169 ± 0.015 | 1.73 ± 0.095
CAUGAA | -0.704 ± 0.022 | 1.28 ± 0.092 | -0.4855 ± 0.00097 | 1.43 ± 0.12
AAAUGC | -0.0259 ± 0.11 | 1.642 ± 0.01 | 0.294 ± 0.022 | 1.79 ± 0.09

Variant | FACS-Seq fitted mean (log10) [1] | normalized RNA/DNA level without ligand (log10) [2] | FACS-Seq fitted mean (log10) [3] | normalized RNA/DNA level with ligand (log10) [4]
CCGAUG | -0.912 ± 0.22 | 1.09 ± 0.038 | -0.634 ± 0.095 | 1.32 ± 0.16
GACAAC | -0.156 ± 0.0096 | 1.63 ± 0.022 | 0.197 ± 0.1 | 1.82 ± 0.12
GCCAAU | -0.423 ± 0.1 | 1.57 ± 0.021 | -0.105 ± 0.08 | 1.75 ± 0.11
CUGGAA | -0.647 ± 0.051 | 1.26 ± 0.1 | -0.397 ± 0.011 | 1.41 ± 0.06
ACGUGG | -0.532 ± 0.088 | 1.56 ± 0.11 | -0.352 ± 0.032 | 1.74 ± 0.058
CACUGU | -0.215 ± 0.023 | 1.709 ± 0.017 | 0.0975 ± 0.08 | 1.83 ± 0.11
CUUAGC | -0.863 ± 0.058 | 1.79 ± 0.00046 | -0.484 ± 0.043 | 1.88 ± 0.11
AAUGAA | -0.0795 ± 0.021 | 1.46 ± 0.097 | 0.113 ± 0.065 | 1.63 ± 0.097
GAACAG | -0.182 ± 0.12 | 1.753 ± 0.015 | 0.0981 ± 0.039 | 1.82 ± 0.094
CUCGGA | -0.14 ± 0.19 | 1.58 ± 0.076 | 0.203 ± 0.14 | 1.81 ± 0.14
GAAGGA | -0.325 ± 0.067 | 1.44 ± 0.093 | 0.0781 ± 0.006 | 1.59 ± 0.067
ACAGAU | -0.584 ± 0.025 | 1.39 ± 0.072 | -0.289 ± 0.018 | 1.54 ± 0.096
CUCAUA | -0.575 ± 0.039 | 1.43 ± 0.079 | -0.298 ± 0.012 | 1.65 ± 0.14
GCGCUA | -0.702 ± 0.086 | 1.65 ± 0.043 | -0.433 ± 0.079 | 1.78 ± 0.17
GUUCUA | -0.743 ± 0.033 | 1.635 ± 0.0068 | -0.5214 ± 0.0042 | 1.75 ± 0.095
GUUAUA | -0.123 ± 0.14 | 1.59 ± 0.042 | 0.169 ± 0.14 | 1.75 ± 0.071
CCUGUA | -0.428 ± 0.0045 | 1.54 ± 0.15 | -0.0267 ± 0.0096 | 1.73 ± 0.077
CAUCCA | -0.794 ± 0.028 | 1.44 ± 0.016 | -0.5192 ± 0.002 | 1.696 ± 0.011
GCACAA | -0.339 ± 0.051 | 1.41 ± 0.051 | 0.0543 ± 0.037 | 1.62 ± 0.11
UUAUGG | -0.0165 ± 0.12 | 1.74 ± 0.053 | 0.213 ± 0.035 | 1.85 ± 0.13
GAAACA | -0.441 ± 0.093 | 1.61 ± 0.023 | -0.185 ± 0.018 | 1.73 ± 0.1
CAACAU | -0.377 ± 0.0095 | 1.43 ± 0.089 | -0.0626 ± 0.039 | 1.64 ± 0.13
CCAUGC | 0.318 ± 0.13 | 1.673 ± 0.0061 | 0.419 ± 0.012 | 1.82 ± 0.11
CUGUAU | -0.00585 ± 0.097 | 1.56 ± 0.039 | 0.2727 ± 0.0019 | 1.72 ± 0.07

Variant | FACS-Seq fitted mean (log10) [1] | normalized RNA/DNA level without ligand (log10) [2] | FACS-Seq fitted mean (log10) [3] | normalized RNA/DNA level with ligand (log10) [4]
GCAAGC | -0.589 ± 0.17 | 1.63 ± 0.026 | -0.514 ± 0.15 | 1.81 ± 0.14
CUAAUU | -0.314 ± 0.073 | 1.537 ± 0.0049 | 0.0103 ± 0.0086 | 1.74 ± 0.081
GAAGUU | -0.118 ± 0.022 | 1.55 ± 0.072 | 0.245 ± 0.074 | 1.7 ± 0.091
ACCAAA | -0.438 ± 0.056 | 1.49 ± 0.12 | -0.0508 ± 0.12 | 1.71 ± 0.1
UCUGGU | -0.364 ± 0.019 | 1.66 ± 0.049 | -0.0436 ± 0.031 | 1.81 ± 0.044
AGUGGG | -0.534 ± 0.12 | 1.69 ± 0.069 | -0.365 ± 0.059 | 1.8 ± 0.062
UAAAUU | 0.0621 ± 0.17 | 1.631 ± 0.016 | 0.394 ± 0.011 | 1.77 ± 0.11
AGGUCA | -0.483 ± 0.071 | 1.649 ± 0.0037 | -0.219 ± 0.037 | 1.77 ± 0.14
CAAUCA | -0.5458 ± 0.0024 | 1.4 ± 0.11 | -0.364 ± 0.017 | 1.61 ± 0.085
CUAUCU | -0.234 ± 0.066 | 1.62 ± 0.021 | -0.142 ± 0.059 | 1.76 ± 0.11
CGGUAC | -0.413 ± 0.026 | 1.53 ± 0.13 | -0.0971 ± 0.017 | 1.72 ± 0.086
GCGACG | -0.315 ± 0.099 | 1.55 ± 0.096 | -0.216 ± 0.13 | 1.73 ± 0.076
UUGAAG | -0.189 ± 0.02 | 1.639 ± 0.0094 | 0.0171 ± 0.037 | 1.81 ± 0.12
AUAGUA | 0.0378 ± 0.13 | 1.5 ± 0.034 | 0.3053 ± 0.00099 | 1.65 ± 0.046
GCUGGU | -0.0949 ± 0.014 | 1.6 ± 0.057 | 0.119 ± 0.16 | 1.76 ± 0.099
AGGUAU | -0.276 ± 0.0093 | 1.57 ± 0.046 | 0.0998 ± 0.21 | 1.76 ± 0.066
CGCUAA | -0.647 ± 0.045 | 1.22 ± 0.066 | -0.386 ± 0.093 | 1.37 ± 0.059
GACUUA | -0.438 ± 0.043 | 1.5846 ± 6e-05 | -0.219 ± 0.05 | 1.76 ± 0.1
GAGAUU | -0.388 ± 0.22 | 1.71 ± 0.035 | -0.0338 ± 0.038 | 1.82 ± 0.1
AACACA | -0.289 ± 0.0062 | 1.54 ± 0.031 | -0.0564 ± 0.0031 | 1.75 ± 0.12
UGUAGU | 0.04 ± 0.16 | 1.66 ± 0.051 | 0.343 ± 0.011 | 1.86 ± 0.12
CGUCGA | -0.179 ± 0.073 | 1.58 ± 0.049 | 0.0661 ± 0.0086 | 1.77 ± 0.093
UAUUAA | -0.387 ± 0.054 | 1.7 ± 0.039 | -0.126 ± 0.13 | 1.87 ± 0.12
